# Assay results from patent US20060281118A1 (UNIVERSITY OF MEDICINE AND DENTISTRY OF NEW JERSEY, published 2006).
# T1: Cim5 (yeast, UniProt P33299 1-467)
# T1 construct: Endogenous protein in yeast extracts, detected by immunoblot as part of the proteasome complex
# T1 sequence (looked up): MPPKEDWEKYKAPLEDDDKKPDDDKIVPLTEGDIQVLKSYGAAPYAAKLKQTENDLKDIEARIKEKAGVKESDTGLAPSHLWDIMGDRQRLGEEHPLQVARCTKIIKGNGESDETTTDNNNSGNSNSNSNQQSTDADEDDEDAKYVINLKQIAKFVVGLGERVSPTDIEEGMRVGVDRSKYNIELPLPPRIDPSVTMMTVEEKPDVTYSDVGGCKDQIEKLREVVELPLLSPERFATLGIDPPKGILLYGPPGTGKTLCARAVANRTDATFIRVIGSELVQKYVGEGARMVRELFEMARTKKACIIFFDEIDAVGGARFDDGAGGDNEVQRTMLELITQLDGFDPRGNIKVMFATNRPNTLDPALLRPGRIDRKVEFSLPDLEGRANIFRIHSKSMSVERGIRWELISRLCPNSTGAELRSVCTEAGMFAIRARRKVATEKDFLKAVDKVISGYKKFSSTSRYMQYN
# T2: Cim3 (yeast, UniProt Q01939 2-405)
# T2 construct: Endogenous protein in yeast extracts, detected by immunoblot as part of the proteasome complex; also called Sug1
# T2 sequence (looked up): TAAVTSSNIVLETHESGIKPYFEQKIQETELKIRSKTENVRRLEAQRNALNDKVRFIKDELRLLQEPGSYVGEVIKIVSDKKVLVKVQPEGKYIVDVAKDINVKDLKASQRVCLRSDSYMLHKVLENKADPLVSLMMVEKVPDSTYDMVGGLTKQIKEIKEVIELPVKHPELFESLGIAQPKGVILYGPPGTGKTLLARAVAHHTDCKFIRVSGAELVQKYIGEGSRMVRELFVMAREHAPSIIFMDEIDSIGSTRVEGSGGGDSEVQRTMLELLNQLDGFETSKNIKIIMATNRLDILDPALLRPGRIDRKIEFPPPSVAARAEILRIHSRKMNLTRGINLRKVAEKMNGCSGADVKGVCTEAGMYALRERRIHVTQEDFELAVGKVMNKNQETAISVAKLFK
# B1: GST-UbL^HRA (other)
# chain: MAVTITLKTLQQQTFKIRMEPDETVKVLKEKIEAEKGRDAFPVAGQKLIYAGKILSDDVPIRDYRIDEKNFVVVMVTKTKA
# notes: The UbL is linked to the C-terminus of GST; also called ubiquitin-like domain of HHR23A linked to GST; not shown: glutathione S-transferase (GST)
# Tests used:
# [1] = target: Pre1-FLAG (yeast) (UniProt P22141); test: co-immunoprecipitation on FLAG-agarose; amount left on the beads after 18 hours at 4° C.
# [2] = target: T1, Cim5; test: GST pull-down from yeast extracts, Cim3 and Cim5 immunoblot (FIG. 13A, lane 5)
# Description: (§1) GST linked proteins were expressed in yeast and purified on glutathione-SEPHAROSE. Proteins retained on the beads were resolved in SDS-polyacrylamide gels, transferred to nitrocellulose, and incubated with antisera specific to proteasome subunits Cim3 and Cim5. The blot was developed by enhanced chemiluminescence ([…]). […] Yeast strains expressing the GST linked proteins as well as Pre1-FLAG, FIG. 13B. The blot was developed with anti-FLAG antiserum (KODAK). The position of molecular weight markers are indicated.
# (§2) Extracts were incubated with glutathione-SEPHAROSE, and bound proteins separated in a SDS-polyacrylamide gel, transferred to nitrocellulose and analyzed by immunological methods. […] The interacting proteins were analyzed via western blot analysis with Cim5 antibodies which cross-react with Mss1, a human counterpart of yeast Cim5 (Ghislain, et al. (1993) Nature 366:358-361).
# [3] = target: T2, Cim3; test: as above
# Description: as §1, §2
# Sequence of Pre1-FLAG (yeast) (P22141 whole entry): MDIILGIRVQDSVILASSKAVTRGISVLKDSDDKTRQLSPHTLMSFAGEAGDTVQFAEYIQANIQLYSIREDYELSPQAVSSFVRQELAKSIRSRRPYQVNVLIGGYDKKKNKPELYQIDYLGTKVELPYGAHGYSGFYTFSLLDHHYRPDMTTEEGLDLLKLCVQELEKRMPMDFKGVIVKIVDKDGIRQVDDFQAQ
molecule,measurement,setting,value
native Rad23 (from UniProt P32628 1-398),percent of cellular Rad23 precipitated with Pre1-FLAG,[1],5%
B1,binding result,[2],no binding
same,binding result,[3],no binding
